Paper PMC2615004

Biological target: photosynthetic reaction center from Rhodobacter sphaeroides, native (strain R26) (Rhodobacter sphaeroides) (UniProt P0C0Y8)
Assay: flash absorption spectroscopy

dH: 54 meV
Substance: cytochrome c2 from Rhodobacter sphaeroides (from UniProt P0C0X8 1-124) (natural protein)
